For one test, the target named is TIGIT (Homo sapiens) (UniProt Q495A1). The settings on record: cited from earlier work.
The target in test [1] is fibronectin (Homo sapiens) (UniProt P02751). As to conditions: cited from earlier work.
Test [2] has as its target hTIGIT-ECD-Fc (human TIGIT extracellular domain with C-terminal Fc tag, Acro Biosystems #TIT-H5254) (human) (UniProt Q495A1). Briefly: SPR; Biacore 3000; hTIGIT-ECD-Fc immobilised on CM5 chip (3220 RU); Fap2-ECD injected at 52.5 to 368 nM; 25 mM HEPES-NaOH pH 7.5, 50 mM NaCl, 0.005% Tween-20; 25 °C; global 1:1 Langmuir fit. For orientation: In SPR one partner is held on a chip, and binding of the other changes the refractive index at the surface.

Test [3] deals with T1, Fap2 extracellular domain (Fap2-ECD), residues 42-3271, purified after release from the AIDA autotransporter (Fusobacterium nucleatum subsp. …, UniProt A0ABV3Y820 42-3271).
T1 construct: Linker GSA before and SAG after the His8 tag; what is left of the TEV site after cleavage follows it; Gene codon-optimised for E. coli; also called Fap2 WT; recombinant Fap2-ECD; not shown: His8, C-terminal, kept
Description: SPR; Biacore 3000; hTIGIT-ECD-Fc amine-coupled to a CM5 chip (3220 RU); Fap2-ECD injected at 52.5-368 nM; 25 mM HEPES-NaOH pH 7.5, 50 mM NaCl, 0.005% Tween-20; 25 °C; 1:1 Langmuir global fit. As to conditions: both partners purified.

By Kd is commonly meant the free concentration of one partner at which half of the binding sites on the other are occupied at equilibrium, for simple one-to-one binding. A word on the koff: it is the rate constant with which the complex falls apart. A lower koff goes with a long-lived complex.

fibronectin (Homo sapiens), sequence (P02751 32-2477): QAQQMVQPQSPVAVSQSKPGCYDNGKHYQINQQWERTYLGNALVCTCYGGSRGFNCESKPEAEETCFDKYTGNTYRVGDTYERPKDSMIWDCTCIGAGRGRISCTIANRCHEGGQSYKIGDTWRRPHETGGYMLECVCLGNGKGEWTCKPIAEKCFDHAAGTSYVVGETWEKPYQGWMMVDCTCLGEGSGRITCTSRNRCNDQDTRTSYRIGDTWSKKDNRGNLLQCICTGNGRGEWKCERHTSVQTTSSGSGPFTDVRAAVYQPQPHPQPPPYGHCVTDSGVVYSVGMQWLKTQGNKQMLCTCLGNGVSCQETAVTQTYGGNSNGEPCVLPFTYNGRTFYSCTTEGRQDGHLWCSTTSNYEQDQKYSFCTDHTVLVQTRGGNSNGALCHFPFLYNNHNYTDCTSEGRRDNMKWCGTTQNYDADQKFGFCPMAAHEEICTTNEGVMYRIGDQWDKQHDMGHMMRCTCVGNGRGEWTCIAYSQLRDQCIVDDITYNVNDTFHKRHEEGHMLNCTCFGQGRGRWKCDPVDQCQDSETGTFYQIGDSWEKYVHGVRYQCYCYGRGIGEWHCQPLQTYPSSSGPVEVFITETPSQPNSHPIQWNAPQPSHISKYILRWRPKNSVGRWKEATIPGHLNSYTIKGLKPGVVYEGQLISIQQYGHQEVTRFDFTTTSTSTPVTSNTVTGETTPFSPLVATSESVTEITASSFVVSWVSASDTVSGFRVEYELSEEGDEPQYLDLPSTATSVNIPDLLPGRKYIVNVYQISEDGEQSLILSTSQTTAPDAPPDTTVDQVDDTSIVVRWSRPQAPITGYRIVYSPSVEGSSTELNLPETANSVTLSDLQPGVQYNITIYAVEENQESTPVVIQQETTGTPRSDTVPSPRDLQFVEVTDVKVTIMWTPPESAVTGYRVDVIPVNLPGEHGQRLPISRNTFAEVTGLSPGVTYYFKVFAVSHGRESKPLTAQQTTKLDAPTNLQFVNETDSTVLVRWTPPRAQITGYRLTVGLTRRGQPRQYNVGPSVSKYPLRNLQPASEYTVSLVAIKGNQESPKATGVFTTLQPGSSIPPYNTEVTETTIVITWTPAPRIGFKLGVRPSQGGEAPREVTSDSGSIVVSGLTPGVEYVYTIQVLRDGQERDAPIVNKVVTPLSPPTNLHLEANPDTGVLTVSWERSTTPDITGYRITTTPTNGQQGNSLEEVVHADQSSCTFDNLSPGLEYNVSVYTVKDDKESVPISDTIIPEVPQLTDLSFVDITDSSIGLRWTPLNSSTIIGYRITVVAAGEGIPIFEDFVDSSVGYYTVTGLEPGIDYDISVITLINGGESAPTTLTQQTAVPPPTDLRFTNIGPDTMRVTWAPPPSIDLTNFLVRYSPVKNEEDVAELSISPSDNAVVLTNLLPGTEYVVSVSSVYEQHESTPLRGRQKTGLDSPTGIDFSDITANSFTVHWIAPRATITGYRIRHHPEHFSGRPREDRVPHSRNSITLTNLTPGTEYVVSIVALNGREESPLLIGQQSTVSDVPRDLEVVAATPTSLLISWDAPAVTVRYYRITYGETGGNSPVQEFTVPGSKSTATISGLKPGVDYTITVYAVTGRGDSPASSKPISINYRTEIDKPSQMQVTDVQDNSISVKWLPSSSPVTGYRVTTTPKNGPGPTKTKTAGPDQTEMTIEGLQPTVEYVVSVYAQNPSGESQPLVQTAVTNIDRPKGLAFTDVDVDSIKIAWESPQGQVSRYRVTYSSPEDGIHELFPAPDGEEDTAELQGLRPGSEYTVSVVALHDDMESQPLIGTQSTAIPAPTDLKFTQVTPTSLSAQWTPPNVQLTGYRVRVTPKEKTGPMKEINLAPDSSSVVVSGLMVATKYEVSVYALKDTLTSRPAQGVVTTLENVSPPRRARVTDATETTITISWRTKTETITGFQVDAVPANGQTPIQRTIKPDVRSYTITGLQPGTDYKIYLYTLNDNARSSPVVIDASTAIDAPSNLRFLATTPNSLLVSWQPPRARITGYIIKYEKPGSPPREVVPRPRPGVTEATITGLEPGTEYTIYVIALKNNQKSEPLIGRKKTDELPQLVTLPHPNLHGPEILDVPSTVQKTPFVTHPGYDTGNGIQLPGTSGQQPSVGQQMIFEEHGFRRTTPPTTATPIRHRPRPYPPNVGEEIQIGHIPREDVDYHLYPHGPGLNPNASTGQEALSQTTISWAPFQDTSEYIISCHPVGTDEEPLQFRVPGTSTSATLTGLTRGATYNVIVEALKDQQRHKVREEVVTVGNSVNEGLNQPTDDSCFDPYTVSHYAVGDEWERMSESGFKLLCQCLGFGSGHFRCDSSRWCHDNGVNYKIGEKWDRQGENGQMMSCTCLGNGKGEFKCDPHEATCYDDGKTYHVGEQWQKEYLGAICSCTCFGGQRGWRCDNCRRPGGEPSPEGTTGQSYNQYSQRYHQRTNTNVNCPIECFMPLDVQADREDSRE

Take Nectin-2 (from UniProt Q92692): the Kd in the test with TIGIT (Homo sapiens) is 6000 nM.

With lipoprotein P4 (from UniProt P26093), the dissociation constant Kd in test [1] was 10 nM.

In test [2], “Fap2 extracellular domain (Fap2-ECD, residues 42-3271) from Fusobacterium nucleatum subsp. nucleatum ATCC23726, wild type (domain or fragment)” came in with a Ka of 1.72e+06 M⁻¹, a Kd of 583 nM and a koff of 0.0308 s⁻¹.

B1: human TIGIT extracellular domain with C-terminal Fc tag (Acro Biosystems #TIT-H5254) (Fc fusion, UniProt Q495A1 22-141, looked up)
chain: MMTGTIETTGNISAEKGGSIILQCHLSSTTAQVTQVNWEQQDQLLAICNADLGWHISPSFKDRVAPGPGLGLTLQSLTVNDTGEYFCIYHTYPDGTYTGRIFLEVLESSVAEHGARFQIP
notes: TIGIT, human, extracellular domain; The text calls it glycosylated hTIGIT-ECD in the SPR; also called hTIGIT-ECD-Fc; hTIGIT-Fc; source: bought: Acro Biosystems, #TIT-H5254; not shown: Fc, C-terminal, kept
With B1, in test [3], the Kd is ~600 nM and the koff is 0.03 ± 0.001 s⁻¹.
